The text below walks through data of paper PMC3936849 (2014).

What all share (experiment): SPR
In general terms: Surface plasmon resonance follows binding to a sensor surface in real time, without labels.

Test [1] concerns the target T1, ActRIIb extracellular domain, C-terminal Fc-tagged chimera (UniProt Q13705 19-137).
T1 chain: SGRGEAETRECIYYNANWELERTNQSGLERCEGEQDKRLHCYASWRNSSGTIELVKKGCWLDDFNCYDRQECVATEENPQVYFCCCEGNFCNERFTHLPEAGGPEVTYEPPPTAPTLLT

Test [2] concerns the target T2, BMPRII extracellular domain, C-terminal Fc-tagged chimera (UniProt Q13873 27-150).
T2 chain: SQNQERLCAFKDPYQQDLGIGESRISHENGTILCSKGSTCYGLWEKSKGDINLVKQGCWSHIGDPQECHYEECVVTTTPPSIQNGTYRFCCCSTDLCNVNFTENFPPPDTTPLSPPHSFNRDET

Test [3] concerns the target T3, ALK1 extracellular domain, C-terminal Fc-tagged chimera (UniProt P37023 22-118).
In test [4] the target is T4, ActRIIa extracellular domain, C-terminal Fc-tagged chimera (UniProt P27037 20-135).
Test [5] concerns the target T1, ActRIIb extracellular domain, ….
Test [6] deals with T2, BMPRII extracellular domain, C-terminal ….
In test [7] the target is T3, ALK1 extracellular domain, C-terminal …. The source holds these as a separate data set.
In test [8] the target is T4, ActRIIa extracellular domain, …. The source holds these as a separate data set.

T4 sequence (P27037 20-135, change not shown): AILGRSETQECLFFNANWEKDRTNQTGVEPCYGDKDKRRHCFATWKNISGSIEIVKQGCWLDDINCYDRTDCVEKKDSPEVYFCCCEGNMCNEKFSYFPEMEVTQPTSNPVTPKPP
T3 sequence (P37023 22-118, change not shown): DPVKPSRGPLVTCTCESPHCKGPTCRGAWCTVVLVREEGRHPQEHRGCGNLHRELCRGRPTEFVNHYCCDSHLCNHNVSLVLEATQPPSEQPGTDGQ

B1: MB109 (E. coli-derived mature domain of human bone morphogenetic protein-9, refolded functional dimer) (ligand)
chain: MSAGAGSHCQKTSLRVNFEDIGWDSWIIAPKEYEAYECKGGCFFPLADDVTPTKHAIVQTLVHLKFPTKVGKACCVPTKLSPISVLYKDDMGVPTLKYHYEGMSVAECGCR
As to B1, the koff (in general, the rate constant with which the complex falls apart) was 0.00152 s⁻¹ in test [1], 0.00153 s⁻¹ in test [2], 0.000884 s⁻¹ in test [3] and 0.0121 s⁻¹ in test [4]. For the same molecule, the Kd (commonly the concentration at which binding is half-saturated) in test [5] was 0.154 nM; in test [6] it was 0.33 nM; in test [7], 0.209 nM; in test [8], 4.27 nM.
